Measurements published in US20170081400A1 (CEPHALON, published 2017).
Substitutions are numbered along the chain they refer to.

T1: human TL1A extracellular domain with N-terminal HIS and FLAG tag (human) (UniProt O95150)
T1 sequence: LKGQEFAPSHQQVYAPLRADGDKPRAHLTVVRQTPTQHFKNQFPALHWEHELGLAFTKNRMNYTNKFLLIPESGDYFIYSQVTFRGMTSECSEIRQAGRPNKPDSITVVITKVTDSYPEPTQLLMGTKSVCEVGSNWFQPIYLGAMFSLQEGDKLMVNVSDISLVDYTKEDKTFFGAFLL

T2: human TL1A extracellular domain with N-terminal HIS and FLAG tag (human, UniProt O95150 72-251)
T2 construct: whole entry named. ~70 kDa fraction purified by gel filtration
T2 sequence: T1 sequence

T3: human TL1A extracellular domain with N-terminal HIS and FLAG tag (human, UniProt O95150 72-251)
T3 construct: the whole entry is named
T3 sequence: T1 sequence

B1: 320-198 (antibody, human IgG1, name in Kabat numbering, V domains shown)
VH: QVQLVQSGAEVKKPGASVKVSCKASGYTFTSYDINWVRQAPGQGLEWMGWLNPNSGNTGYAQKFQGRVTMTADRSTSTAYMELSSLRSEDTAVYYCAREVPETAAFEYWGQGTLVTVSS
VL: QSVLTQPPSVSGAPGQRVTISCLSSSSDIGAGLGVHWYQQLPGTAPKLLIEGYYNRPSGVPDRFSGSKSGTSASLTITGLLPEDEGDYYCQSYDGTLSALFGGGTKLTVLG
notes: human IgG1, lambda
B2: 320-226 (antibody, human IgG1, name in Kabat numbering, V domains shown)
VH: B1 VH
VL: B1 VL with L23T, S27Q
notes: human IgG1, lambda
B3: 320-219 (antibody, human IgG1, name in Kabat numbering, V domains shown)
VH: B1 VH
VL: B1 VL with L23T, S26D
notes: human IgG1, lambda
B4: 320-241 (antibody, human IgG1, name in Kabat numbering, V domains shown)
VH: B1 VH
VL: B1 VL with L23T, I29A
notes: human IgG1, lambda
B5: 320-209 (antibody, human IgG1, name in Kabat numbering, V domains shown)
VH: B1 VH
VL: B1 VL with L23T, S25A
notes: human IgG1, lambda
B6: 320-229 (antibody, human IgG1, name in Kabat numbering, V domains shown)
VH: B1 VH
VL: B1 VL with L23T, S27K
notes: human IgG1, lambda
B7: 320-207 (antibody, human IgG1, name in Kabat numbering, V domains shown)
VH: B1 VH
VL: B1 VL with L23T, S24W
notes: human IgG1, lambda
B8: 320-202 (antibody, human IgG1, name in Kabat numbering, V domains shown)
VH: B1 VH
VL: B1 VL with L23T, S24Q
notes: human IgG1, lambda
B9: 320-245 (antibody, human IgG1, name in Kabat numbering, V domains shown)
VH: B1 VH
VL: B1 VL with L23T, I29H
notes: human IgG1, lambda
B10: 320-249 (antibody, human IgG1, name in Kabat numbering, V domains shown)
VH: B1 VH
VL: B1 VL with L23T, I29Y
notes: human IgG1, lambda
B11: 320-248 (antibody, human IgG1, name in Kabat numbering, V domains shown)
VH: B1 VH
VL: B1 VL with L23T, I29W
notes: human IgG1, lambda
B12: 320-250 (antibody, human IgG1, name in Kabat numbering, V domains shown)
VH: B1 VH
VL: B1 VL with L23T, G30A
notes: human IgG1, lambda
B13: 320-251 (antibody, human IgG1, name in Kabat numbering, V domains shown)
VH: B1 VH
VL: B1 VL with L23T, G30S
notes: human IgG1, lambda
B14: 320-373 (antibody, human IgG1, name in Kabat numbering, V domains shown)
VH: B1 VH
VL: B1 VL with L23T, A99Q
notes: human IgG1, lambda
B15: 320-384 (antibody, human IgG1, name in Kabat numbering, V domains shown)
VH: B1 VH
VL: B1 VL with L23T, L100H
notes: human IgG1, lambda
B16: 320-375 (antibody, human IgG1, name in Kabat numbering, V domains shown)
VH: B1 VH
VL: B1 VL with L23T, A99H
notes: human IgG1, lambda
B17: 320-382 (antibody, human IgG1, name in Kabat numbering, V domains shown)
VH: B1 VH
VL: B1 VL with L23T, L100Q
notes: human IgG1, lambda
B18: 320-387 (antibody, human IgG1, name in Kabat numbering, V domains shown)
VH: B1 VH
VL: B1 VL with L23T, L100Y
notes: human IgG1, lambda
B19: 320-378 (antibody, human IgG1, name in Kabat numbering, V domains shown)
VH: B1 VH
VL: B1 VL with L23T, A99W
notes: human IgG1, lambda
B20: 320-379 (antibody, human IgG1, name in Kabat numbering, V domains shown)
VH: B1 VH
VL: B1 VL with L23T, A99Y
notes: human IgG1, lambda
B21: 320-376 (antibody, human IgG1, name in Kabat numbering, V domains shown)
VH: B1 VH
VL: B1 VL with L23T, A99K
notes: human IgG1, lambda
B22: 320-377 (antibody, human IgG1, name in Kabat numbering, V domains shown)
VH: B1 VH
VL: B1 VL with L23T, A99L
notes: human IgG1, lambda
B23: 320-383 (antibody, human IgG1, name in Kabat numbering, V domains shown)
VH: B1 VH
VL: B1 VL with L23T, L100D
notes: human IgG1, lambda
B24: 320-388 (antibody, human IgG1, name in Kabat numbering, V domains shown)
VH: B1 VH with G26A
VL: B1 VL with L23T
notes: human IgG1, lambda
B25: 320-381 (antibody, human IgG1, name in Kabat numbering, V domains shown)
VH: B1 VH
VL: B1 VL with L23T, L100S
notes: human IgG1, lambda

Biological target: T1, human TL1A extracellular domain with N-terminal HIS and FLAG tag (human)
Test: cell-based or functional assay

Point of comparison: B6, Antibody IC50, TL1A induced caspase potency assay in TF-1 cells 0.04 µg/mL. Against it:
- B1 — 4-fold lower, 0.01 µg/mL
- B2 — within 1.5-fold, 0.03 µg/mL
- B3 — 2-fold lower, 0.02 µg/mL
- B4 — 2-fold lower, 0.02 µg/mL
- B5 — the same, 0.04 µg/mL
- B7 — 5.7-fold lower, 0.007 µg/mL
- B8 — 4-fold lower, 0.01 µg/mL
- B9 — 14-fold higher, 0.54 µg/mL

Point of comparison: B2, Fold improvement over 320-179, TL1A induced caspase potency assay in TF-1 cells 1 fold. Against it:
- B1 — the same, 1 fold
- B3 — higher, 2 fold
- B4 — the same, 1 fold
- B5 — the same, 1 fold
- B6 — higher, 2 fold
- B7 — higher, 3 fold
- B8 — the same, 1 fold
- B9 — lower, 0 fold

Biological target: T2, human TL1A extracellular domain with …
Test: SPR run 2; supernatant on Protein A; TL1A 10 ug/mL; timepoint 44
Outline: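 Biacore T200 SPR with antibody (supernatant or Protein A-purified) captured on Protein A amine-coupled to a CM5 chip; capture level recorded as response change at end of capture.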

Point of comparison: B3, “TL1A Binding Level (Early)” value 243 RU. Against it:
- B1 — higher, 262 RU
- B2 — higher, 250 RU
- B10 — lower, 77 RU
- B4 — lower, 179 RU
- B11 — lower, 96 RU
- B5 — lower, 222 RU
- B6 — higher, 268 RU
- B7 — higher, 268 RU
- B8 — lower, 234 RU
- B12 — lower, 180 RU
- B13 — lower, 134 RU
- B9 — lower, 59 RU

Biological target: T2, human TL1A extracellular domain with …
Test: SPR run 2; supernatant on Protein A; TL1A 10 ug/mL; timepoint 220
Outline: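 CM5 chip, amine-coupled Protein A; capture of supernatant or purified Ab (load varies per run); capture level = ΔRU at end of injection; binding RU read late in dissociation; double referencing (reference cell + buffer blank).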

Point of comparison: B8, “TL1A Binding Level (Late)” value 214 RU. Against it:
- B1 — higher, 241 RU
- B2 — higher, 228 RU
- B3 — higher, 220 RU
- B10 — lower, 28 RU
- B4 — lower, 122 RU
- B11 — lower, 30 RU
- B5 — lower, 200 RU
- B6 — higher, 251 RU
- B7 — higher, 243 RU
- B12 — lower, 115 RU
- B13 — lower, 50 RU
- B9 — lower, 26 RU

Biological target: T3, human TL1A extracellular domain with …
Test: SPR Run 5, Ab from supernatant captured on Protein A, TL1A 5 ug/mL, timepoint 44
From the text: (§1) 1.5. Antibody expression and antigen binding as determined by SPR. Using a CM5 sensor chip (GE Healthcare) Protein A (Pierce) was coupled to the chip surface using an amine coupling kit (GE Healthcare). Protein A was coupled on flow cell 1 and 2 (or alternatively 3 and 4) using a BIACORE® T200. […] The amount of supernatant or purified protein (as well as the concentration) injected during the capture stage varied between runs and is specified in the header of the Tables 3-11. At the end of injection of the supernatant or purified antibody the change in response units was measured. This value was reported as Capture Level in Tables 3-11. […] The response units were measured prior to the end of the dissociation phase. […] The sensorgrams were double referenced (flow cell 2 is subtracted from flow cell 1 and a buffer blank). As there were a large number of antibody variants to screen, these were screened across different runs (Tables 3-11). […] A summary of the conditions used in each run is below:
(§2) 2.1. […] In some experiment the antibodies were purified using Protein A chromatography (See 1.4) and purified antibodies were used in BIACORE® (GE Healthcare) experiments.

Point of comparison: B14, “TL1A Binding Level (Early)” value -1 RU. Against it:
- B15 — higher, 3 RU
- B16 — lower, -2 RU
- B17 — higher, 0 RU
- B18 — higher, 11 RU
- B19 — the same, -1 RU
- B20 — higher, 3 RU
- B21 — higher, 3 RU
- B22 — the same, -1 RU
- B23 — higher, 3 RU
- B24 — higher, 14 RU
- B25 — higher, 3 RU

Biological target: T3, human TL1A extracellular domain with …
Test: SPR Run 5, Ab from supernatant captured on Protein A, TL1A 5 ug/mL, timepoint 220
From the text: as §1, §2

Point of comparison: B17, “TL1A Binding Level (Late)” value 0 RU. Against it:
- B14 — lower, -1 RU
- B15 — higher, 2 RU
- B16 — lower, -1 RU
- B18 — higher, 10 RU
- B19 — lower, -1 RU
- B20 — higher, 1 RU
- B21 — higher, 1 RU
- B22 — lower, -1 RU
- B23 — higher, 1 RU
- B24 — higher, 13 RU
- B25 — higher, 1 RU
